According to article PMC4018761:

What was measured:
[1] = biological target: GST-E2 300-360 (Epstein-Barr virus) (UniProt P12978); test: pull-down
[2] = biological target: GST-E2 335-360 (Epstein-Barr virus) (UniProt P12978); test: pull-down

For “endogenous PRMT5 (protein arginine methyltransferase 5) (from UniProt O14744 1-637) (enzyme)”, the percent of endogenous PRMT5 pulled down [1] was 5% and the percent of endogenous PRMT5 pulled down [2] was 5%.
